Laboratory results as given in US20110294740A1.

Target: Dutch/Iowa CAA double mutant Aβ40 (UniProt P05067)
Experiment: SPR, Aβ peptide immobilised, MBP as analyte

Sequence of myelin basic protein (purified MBP) (P02686 135-304 limits assumed): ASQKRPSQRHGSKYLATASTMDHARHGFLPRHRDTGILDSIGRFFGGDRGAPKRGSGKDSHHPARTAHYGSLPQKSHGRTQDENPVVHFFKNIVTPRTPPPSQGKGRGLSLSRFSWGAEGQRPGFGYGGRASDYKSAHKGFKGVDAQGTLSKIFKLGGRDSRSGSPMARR
Sequence of Dutch/Iowa CAA double mutant Aβ40 (P05067 672-711, change not shown): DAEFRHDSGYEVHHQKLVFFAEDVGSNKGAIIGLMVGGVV

Substance: myelin basic protein (purified MBP) (from UniProt P02686 2-171)
- Kd: 16.9 nM
